The text below walks through data of article PMC5137110, “Relocation of active site carboxylates in major facilitator superfamily multidrug transporter LmrP reveals plasticity in proton interactions” (Scientific Reports, 2016).

One series deals with T1, LmrP (Lactococcus lactis, UniProt Q48658).
T1 construct: full length, 408 residues; His6-tagged (His10-tagged for T331E); plasmid pNZ8084; expressed in L. lactis NZ9000 delta-lmrA delta-lmrCD
Put plainly: fluorescence anisotropy, purified protein titrated into propidium. The class given is binding. To be noted: 50 mM KPi pH 7.0, 100 mM NaCl, 0.05% DDM; 0.2 or 1 μM propidium.

Series [1] relates to CC[N+](C)(CC)CCC[n+]1c(-c2ccccc2)c2cc(N)ccc2c2ccc(N)cc21. Put plainly: cells, lysate or membranes. It is filed as cell-based, Lactococcus lactis. Particulars: 50 mM KPi pH 7.0, 5 mM MgSO4, corrected for influx in cells without LmrP.
Series [2] concerns CC[n+]1c(-c2ccccc2)c2cc(N)ccc2c2ccc(N)cc21. Put plainly: cells, lysate or membranes. It is filed as cell-based, Lactococcus lactis. To be noted: 50 mM KPi pH 7.0, 5 mM MgSO4, corrected for influx in cells without LmrP.

As to `CC[N+](C)(CC)CCC[n+]1c(-c2ccccc2)c2cc(N)ccc2c2ccc(N)cc21` [propidium], the “fluorescence anisotropy, purified protein titrated into propidium” value at LmrP was “propidium binding to purified T331E LmrP and WT LmrP was measured by fluorescence anisotropy”.

Take LmrP (Lactococcus lactis): the figures for the Km in series [1] and in series [2] were 1.3 ± 0.2 µM and 7.7 ± 5.1 µM, respectively.
